Reference: the RNAGym collection of RNA variant scans (doi:10.1101/gr.219683.116)

B1: mRNA-splicing (parent)
chain: AGUUGCUGCUGGGAGCUCCAGCACAGUGAAAUGGACAGAAGGGCAGAGCAA

Variants of: B1
Assay: exon inclusion enrichment index; higher = more inclusion; WT1 exon 5 minigene, HEK293

Which “exon inclusion enrichment index” value does the source give for G5C C6G U7C U10C A39U here?
Its value is 0.26.

With C6A U7A C9A U10A G41C as the variant, how does the “exon inclusion enrichment index” value read?
Its value is 2.07.

With G5C C6A U7C G8A U10A G26A as the variant, how does the “exon inclusion enrichment index” value read?
The value was 0.156.

For G5C C6U G8C C9U U10C G11A, which “exon inclusion enrichment index” value is on record?
Its value is 0.742.

For G5A C6G U7G C9A G46A A47U, which “exon inclusion enrichment index” value is on record?
The value was 0.00359.

With G5C C6G U7C U10C G21A C22G as the variant, how does the “exon inclusion enrichment index” value read?
Its value is 3.81.

Which “exon inclusion enrichment index” value does the source give for G5C C6G U7C U10C A39U A40U here?
The value was 1.88.

Which “exon inclusion enrichment index” value does the source give for G5C C6G U7C C9U here?
The value was 2.47.

Which “exon inclusion enrichment index” value does the source give for G5A C6A U7A C9A here?
The value was 0.386.

Which “exon inclusion enrichment index” value does the source give for C6A U7A C9A U10A A20C G21A here?
The value was 0.223.

Which “exon inclusion enrichment index” value does the source give for C6A U7C C9A U10C G11A here?
The value was 1.84.

For G2C U3G, which “exon inclusion enrichment index” value is on record?
The value was 0.163.

Which “exon inclusion enrichment index” value does the source give for G2C U3A here?
The value was 0.0779.

For G5A C6G U7G C9A A25C G26U, which “exon inclusion enrichment index” value is on record?
Its value is 0.00184.

With G5C C6A U7C G8A U10A U27G G28U as the variant, how does the “exon inclusion enrichment index” value read?
The value was 0.00217.

For G5U G8U C9U G11A, which “exon inclusion enrichment index” value is on record?
The value was 0.0224.

Which “exon inclusion enrichment index” value does the source give for G5A C6U U7A G8U C9A C36A A37G here?
The value was 0.0248.

For U3A G5C C6G U7C U10C, which “exon inclusion enrichment index” value is on record?
Its value is 4.21.

With G5A C6G U7G C9A G33U G34C as the variant, how does the “exon inclusion enrichment index” value read?
The value was 0.00131.

For G5C C6G U7C U10C U17G C18G, which “exon inclusion enrichment index” value is on record?
Its value is 2.48.

Which “exon inclusion enrichment index” value does the source give for G5U G8U C9U C22U here?
The value was 0.095.

With G5A C6U U7A G8U C9A A23C C24G as the variant, how does the “exon inclusion enrichment index” value read?
The value was 0.241.

With U3G U4C G5A U7C G8A U10C as the variant, how does the “exon inclusion enrichment index” value read?
The value was 2.37.

With G5U C6A U7C U10C as the variant, how does the “exon inclusion enrichment index” value read?
The value was 3.2.

With G5C C6U G8C C9U U10C G28C A29C as the variant, how does the “exon inclusion enrichment index” value read?
Its value is 1.58.

With G5A U7C G8A U10C C19G as the variant, how does the “exon inclusion enrichment index” value read?
Its value is 1.88.

Which “exon inclusion enrichment index” value does the source give for G5C C6G U7C U10C C18A here?
The value was 3.25.

For G21C C22A, which “exon inclusion enrichment index” value is on record?
The value was 2.18.

With G5C C6G U7C U10G G11U as the variant, how does the “exon inclusion enrichment index” value read?
Its value is 2.66.

With G5U G8U C9U A30G A31C as the variant, how does the “exon inclusion enrichment index” value read?
The value was 0.00346.

For U3G G5C C6U G8C C9U U10C, which “exon inclusion enrichment index” value is on record?
The value was 0.696.

Which “exon inclusion enrichment index” value does the source give for G5A C6G U7G C9A G21U C22U here?
Its value is 0.00236.

With G5C C6A U7C G8A U10A A20U G21U as the variant, how does the “exon inclusion enrichment index” value read?
The value was 0.037.

Which “exon inclusion enrichment index” value does the source give for G5C C6U G8C C9U U10C G11U G12A here?
Its value is 0.0218.

Which “exon inclusion enrichment index” value does the source give for G5U G8U C9U A14C here?
The value was 0.108.

Which “exon inclusion enrichment index” value does the source give for G43C C44A here?
Its value is 0.932.

For G5A U7C G8A U10C G42A G43A, which “exon inclusion enrichment index” value is on record?
Its value is 4.61.

With G5U G8U C9U U32C G33C as the variant, how does the “exon inclusion enrichment index” value read?
The value was 0.216.

With C6A U7A C9A U10A C19A A20C as the variant, how does the “exon inclusion enrichment index” value read?
The value was 0.41.

For G5A C6U U7G G8C C9A, which “exon inclusion enrichment index” value is on record?
Its value is 0.407.

Which “exon inclusion enrichment index” value does the source give for C6A G8A C9A U10A here?
Its value is 0.0495.

For U7C U10C, which “exon inclusion enrichment index” value is on record?
Its value is 2.76.

With G5A C6U U7A G8U C9A A20C G21C as the variant, how does the “exon inclusion enrichment index” value read?
Its value is 0.0139.

Which “exon inclusion enrichment index” value does the source give for G5C C6A U7C G8A U10A U17A C18G here?
Its value is 0.0895.

Which “exon inclusion enrichment index” value does the source give for G5A U7C G8A U10C G43C C44G here?
The value was 4.39.

With G2A U3G G5A U7C G8A U10C as the variant, how does the “exon inclusion enrichment index” value read?
Its value is 1.76.

With G5C C6G U7C U10C G38C A39C as the variant, how does the “exon inclusion enrichment index” value read?
The value was 2.86.

With G5U G8U C9U A39G A40C as the variant, how does the “exon inclusion enrichment index” value read?
Its value is 0.128.

Which “exon inclusion enrichment index” value does the source give for G5U G8U C9U A39G A40U here?
Its value is 0.00232.

With G5C C6A U7C G8A U10A A39U as the variant, how does the “exon inclusion enrichment index” value read?
Its value is 0.00393.

For G12A G13C, which “exon inclusion enrichment index” value is on record?
Its value is 1.2.

For G5A U7C G8A U10C G43U C44U, which “exon inclusion enrichment index” value is on record?
Its value is 0.735.

For A37U G38U, which “exon inclusion enrichment index” value is on record?
The value was 0.0123.

Which “exon inclusion enrichment index” value does the source give for G5A U7C G8A U10C G12A here?
The value was 1.48.

Which “exon inclusion enrichment index” value does the source give for G5U G8U C9U G41C G42C here?
The value was 0.753.

For G5C C6A U7C G8A U10A A35U, which “exon inclusion enrichment index” value is on record?
The value was 0.00802.

Which “exon inclusion enrichment index” value does the source give for C6A U7A C9A U10A A47U G48U here?
Its value is 0.748.

Which “exon inclusion enrichment index” value does the source give for G5C C6A U7C G8A U10A C24U here?
Its value is 0.0213.

Which “exon inclusion enrichment index” value does the source give for G5A C6G U7G C9A C22U A23U here?
The value was 0.00262.

With C6A U7C C9A U10C A40U G41A as the variant, how does the “exon inclusion enrichment index” value read?
The value was 0.347.

With G5C C6A U7C G8A U10A C16U as the variant, how does the “exon inclusion enrichment index” value read?
The value was 0.0868.

With C6A U7C C9A U10C U17A as the variant, how does the “exon inclusion enrichment index” value read?
The value was 3.36.

For C6A U7C C9A U10C A47U G48A, which “exon inclusion enrichment index” value is on record?
The value was 2.69.

Which “exon inclusion enrichment index” value does the source give for G34A A35C here?
Its value is 0.0806.

For U4C G5A C6A U7C C9A U10C, which “exon inclusion enrichment index” value is on record?
Its value is 4.23.

With G5C C6U G8C C9U U10C G13C as the variant, how does the “exon inclusion enrichment index” value read?
The value was 0.822.

Which “exon inclusion enrichment index” value does the source give for G2A U3A G5C C6U G8C C9U U10C here?
Its value is 1.94.

For G26C U27A, which “exon inclusion enrichment index” value is on record?
Its value is 0.11.

Which “exon inclusion enrichment index” value does the source give for G5U G8U C9U G42C G43C here?
Its value is 0.708.

For G46U A47C, which “exon inclusion enrichment index” value is on record?
Its value is 0.692.

Which “exon inclusion enrichment index” value does the source give for G46U A47U here?
The value was 0.237.

Which “exon inclusion enrichment index” value does the source give for C6A U7C C9A U10A G11A here?
The value was 1.98.

Which “exon inclusion enrichment index” value does the source give for U4A C6U G8C C9U U10C here?
The value was 0.0827.

With G5U G8U C9U U17G C18G as the variant, how does the “exon inclusion enrichment index” value read?
The value was 0.13.

For G5A G8C C9U U10C, which “exon inclusion enrichment index” value is on record?
Its value is 1.05.

For C6A U7C C9A U10C C24A A25C, which “exon inclusion enrichment index” value is on record?
Its value is 4.45.

Which “exon inclusion enrichment index” value does the source give for G5U G8U C9U G46A A47C here?
Its value is 0.466.

For G5U G8U C9U C22G A23G, which “exon inclusion enrichment index” value is on record?
Its value is 0.0211.

Which “exon inclusion enrichment index” value does the source give for G5U G8U C9U A29G A30G here?
Its value is 0.0374.

Which “exon inclusion enrichment index” value does the source give for G5C C6G U7C U10C G41U G42A here?
Its value is 1.45.

With G5C C6G U7C U10C G28C A29G as the variant, how does the “exon inclusion enrichment index” value read?
Its value is 4.75.

For G5C C6G U7C U10C A47G, which “exon inclusion enrichment index” value is on record?
Its value is 0.871.

Which “exon inclusion enrichment index” value does the source give for G5A C6G U7G C9A A45C G46C here?
Its value is 0.00399.

With G5U G8U C9U G43A C44A as the variant, how does the “exon inclusion enrichment index” value read?
The value was 0.667.
